No end group written: not given here.
How the values were obtained:
Type in all cases: in vivo, human
[1] = test system: subjects with pancreatic cancer; test: Phase I/II clinical study (NCT03364400): adverse events in subjects with pancreatic cancer
Protocol: VT1021 was evaluated in a recently completed phase I/II open-label, multicenter, dose escalation (Part 1) and expansion (Part 2) clinical study in advanced, refractory, solid tumors including pancreatic cancer (NCT03364400). Seven subjects with pancreatic cancer were dosed in Part 1 and 32 were dosed in Part 2, 17 of which were considered evaluable as having completed ≥1 cycle of VT1021 treatment and tumor imaging during cycle 2. […] In the “expansion stage” of the VT1021-01 Study, subjects diagnosed with recurrent GBM, pancreatic cancer, ovarian cancer and other solid tumors were enrolled. They were treated with VT1021 at 11.8 mg/kg, twice weekly by IV infusion. The blood samples were collected from the clinical study at pre-treatment, 0, 2, 4, 6 hours post treatment to measure the levels of VT1021 (FIG. 2). The tumor biopsy samples prior to treatment and during treatment were collected from the clinical study to measure expression levels of biomarkers including CD36 and CD47, as well as cell surface markers for immune cell populations in the TME by immunohistochemistry assays (FIG. 3, FIG. 4, FIG. 5). The correlation between days on study and tumor shrinkage versus expression profile of CD36 and CD47 was analyzed (FIG. 4). The general expression profile of CD36 and CD47 has been assessed by IHC on Tumor Tissue Microarrays (TMAs), which contain biopsy samples collected from pancreatic cancer patients. TMAs were purchased from commercial sources, not related to the VT1021-01 clinical study. Common adverse effects (AEs) in escalation subjects with pancreatic cancer (Part 1) are shown in Table 1 The AEs shown occurred in 2 or more subjects, all cycles, maximum grade, regardless of toxicity). Of 39 pancreatic cancer subjects enrolled and dosed, 7 subjects were enrolled in the Part 1 escalation cohort. All 7 subjects reported at least one AE (regardless of causality). Four subjects had at least one AE, which was probably or possibly related to the study drug. […] Five subjects reported at least one severe adverse event (SAE) (regardless of causality). Two subjects had SAEs definitely or possibly related to study drug: infusion related reaction (grade 3), altered mental status (grade 2). Thirty-two subjects were enrolled in the Part 2 […] cohort. Thirty subjects reported at least one AE (regardless of causality). Eighteen subjects had at least one AE definitely, probably or possibly related to the study drug. Twenty subjects reported at least one SAE (regardless of causality). Two subjects had SAEs possibly related to study drug: thrombosis (grade 3), fever (grade 1)

subjects with rGBM = test: Phase I/II clinical study (NCT03364400): adverse events in subjects with recurrent GBM
Protocol: VT1021 was evaluated in a recently completed phase I/II open-label, multicenter, dose escalation (Part 1) and expansion (Part 2) clinical study in advanced, refractory, solid tumors including recurrent GBM (rGBM) (NCT03364400). Thirty-two subjects with rGBM were dosed in Part 2, 22 of which were considered evaluable as having completed ≥1 cycle of VT1021 treatment and tumor imaging during cycle 2. […]

[2] = test system: circulating immune cells (CTLs, helper T cells, MDSCs); test: Flow cytometry of immune cells isolated from whole blood of rGBM subjects; conditions: Cycle 1 Day 1
Source text: FIG. 11A, FIG. 11B, FIG. 11C, FIG. 11D, FIG. 11E, and FIG. 11F are charts showing modulation of the immune system by VT1021 in circulation and in the TME. […] Proliferating CTLs increased ≥1.5 fold regardless of clinical response, proliferating helper T cells increased ≥1.5 fold in CR/PR and PD subjects while monocytic MDSCs (mMDSCs) and activated MDSCs decreased≤0.5 fold in all evaluable subjects. […] Percent of M1 increased 1.9-fold while M2 decreased 0.6-fold after treatment. […] CTLs increased >4 fold while total and mMDSCs […] >15 fold in the on-study biopsy compared to pre-treatment.

[3] = Part 1 escalation cohort, 7 pancreatic cancer subjects
[4] = Part 1 escalation, pancreatic cancer, all cycles, maximum grade
[5] = Part 2 cohort, 32 pancreatic cancer subjects
[6] = Part 2 expansion, pancreatic cancer, all cycles, maximum grade
[7] = GBM, 32 Subjects, all cycles, maximum grade, regardless of causality
[8] = whole blood before and after 6 hours, all evaluable subjects, decreased

Substance: cyclic DWLPK (also: cyclic, mode of cyclisation not given here) [VT1021, 5-amino acid cyclic peptide from prosaposin; Tsp-1-inducing agent]
- Urinary tract infection (AE), Grade 2 [1]: 2 subjects
- subjects with SAEs definitely or possibly related to study drug ([1]; Part 1, 7 pancreatic cancer subjects, infusion related reaction (grade 3), altered mental status (grade 2)): Two
- dose-limiting toxicity [1, 3]: no dose-limiting toxicity
- subjects reporting at least one AE (regardless of causality) [1, 3]: 7 subjects
- subjects reporting at least one severe adverse event (SAE) (regardless of causality) [1, 3]: Five
- subjects with at least one AE probably or possibly related to the study drug [1, 3]: Four
- Abdominal pain (AE), Grade 1 [1, 4]: 3 subjects
- Abdominal pain (AE), Grade 3 [1, 4]: 1 subjects
- Abdominal pain (AE), Total [1, 4]: 4 subjects
- Constipation (AE), Grade 1 [1, 4]: 1 subjects
- Constipation (AE), Grade 3 [1, 4]: 1 subjects
- Constipation (AE), Total [1, 4]: 2 subjects
- Fatigue (AE), Grade 1 [1, 4]: 2 subjects
- Fatigue (AE), Total [1, 4]: 2 subjects
- Infusion related reaction (AE), Grade 2 [1, 4]: 1 subjects
- Infusion related reaction (AE), Grade 3 [1, 4]: 1 subjects
- Infusion related reaction (AE), Total [1, 4]: 2 subjects
- Nausea (AE), Grade 1 [1, 4]: 2 subjects
- Nausea (AE), Total [1, 4]: 2 subjects
- Thrombosis (AE), Grade 3 [1, 4]: 2 subjects
- Thrombosis (AE), Total [1, 4]: 2 subjects
- subjects with SAEs possibly related to study drug ([1]; Part 2, 32 pancreatic cancer subjects, thrombosis (grade 3), fever (grade 1)): Two
- subjects reporting at least one AE (regardless of causality) [1, 5]: Thirty
- subjects reporting at least one SAE (regardless of causality) [1, 5]: Twenty
- subjects with at least one AE definitely, probably or possibly related to the study drug [1, 5]: Eighteen
- Abdominal pain (AE), Grade 1 [1, 6]: 3 subjects
- Abdominal pain (AE), Grade 2 [1, 6]: 9 subjects
- Abdominal pain (AE), Grade 3 [1, 6]: 4 subjects
- Abdominal pain (AE), Total [1, 6]: 16 subjects
- Alanine aminotransferase increased (AE), Grade 1 [1, 6]: 4 subjects
- Alanine aminotransferase increased (AE), Grade 3 [1, 6]: 2 subjects
- Alanine aminotransferase increased (AE), Total [1, 6]: 6 subjects
- Anaemia (AE), Grade 1 [1, 6]: 4 subjects
- Anaemia (AE), Grade 2 [1, 6]: 2 subjects
- Anaemia (AE), Grade 3 [1, 6]: 1 subjects
- Anaemia (AE), Total [1, 6]: 7 subjects
- Aspartate aminotransferase increased (AE), Grade 1 [1, 6]: 2 subjects
- Aspartate aminotransferase increased (AE), Grade 2 [1, 6]: 2 subjects
- Aspartate aminotransferase increased (AE), Grade 3 [1, 6]: 2 subjects
- Aspartate aminotransferase increased (AE), Total [1, 6]: 6 subjects
- Blood bilirubin increased (AE), Grade 2 [1, 6]: 3 subjects
- Blood bilirubin increased (AE), Grade 3 [1, 6]: 4 subjects
- Blood bilirubin increased (AE), Total [1, 6]: 7 subjects
- Constipation (AE), Grade 1 [1, 6]: 4 subjects
- Constipation (AE), Grade 2 [1, 6]: 4 subjects
- Constipation (AE), Total [1, 6]: 8 subjects
- Decreased appetite (AE), Grade 1 [1, 6]: 7 subjects
- Decreased appetite (AE), Grade 2 [1, 6]: 2 subjects
- Decreased appetite (AE), Grade 3 [1, 6]: 2 subjects
- Decreased appetite (AE), Total [1, 6]: 11 subjects
- Diarrhoea (AE), Grade 1 [1, 6]: 5 subjects
- Diarrhoea (AE), Grade 2 [1, 6]: 3 subjects
- Diarrhoea (AE), Total [1, 6]: 8 subjects
- Fatigue (AE), Grade 1 [1, 6]: 3 subjects
- Fatigue (AE), Grade 2 [1, 6]: 8 subjects
- Fatigue (AE), Grade 3 [1, 6]: 3 subjects
- Fatigue (AE), Total [1, 6]: 14 subjects
- Insomnia (AE), Grade 1 [1, 6]: 6 subjects
- Insomnia (AE), Total [1, 6]: 6 subjects
- Nausea (AE), Grade 1 [1, 6]: 10 subjects
- Nausea (AE), Grade 2 [1, 6]: 3 subjects
- Nausea (AE), Grade 3 [1, 6]: 1 subjects
- Nausea (AE), Total [1, 6]: 14 subjects
- Pyrexia (AE), Grade 1 [1, 6]: 6 subjects
- Pyrexia (AE), Total [1, 6]: 6 subjects
- Urinary tract infection (AE), Total ([1]; human, in vivo): 2 subjects
- major adverse events (AEs) ([1]; phase I/II study, solid tumors including pancreatic cancer): no major adverse events
- Abdominal Pain (AE), All Grades (subjects with rGBM; [7]): 5
- Abdominal Pain (AE), Grade 1-2 (subjects with rGBM; [7]): 5
- Diarrhea (AE), All Grades (subjects with rGBM; [7]): 4
- Diarrhea (AE), Grade 1-2 (subjects with rGBM; [7]): 4
- Fall (AE), All Grades (subjects with rGBM; [7]): 9
- Fall (AE), Grade 1-2 (subjects with rGBM; [7]): 9
- Infusion reaction (AE), All Grades (subjects with rGBM; [7]): 3
- Infusion reaction (AE), Grade 1-2 (subjects with rGBM; [7]): 3
- Nausea (AE), All Grades (subjects with rGBM; [7]): 3
- Nausea (AE), Grade 1-2 (subjects with rGBM; [7]): 3
- Vomiting (AE), All Grades (subjects with rGBM; [7]): 3
- Vomiting (AE), Grade 1-2 (subjects with rGBM; [7]): 2
- Vomiting (AE), Grade 3-4 (subjects with rGBM; [7]): 1
- major adverse events (AEs) (subjects with rGBM; phase I/II study, solid tumors including rGBM): no major adverse events
- Proliferating CTLs, fold change ([2]; whole blood before and after 6 hours of treatment, regardless of clinical response, increased): ≥ 1.5 fold
- proliferating helper T cells, fold change ([2]; whole blood before and after 6 hours, CR/PR and PD subjects, increased): ≥ 1.5 fold
- activated MDSCs, fold change [2, 8]: ≤ 0.5 fold
- monocytic MDSCs (mMDSCs), fold change [2, 8]: ≤ 0.5 fold

Reference: US20250041379A1, “METHODS AND COMPOSITIONS FOR THE TREATMENT OF CANCER” (Vigeo Therapeutics, Inc., priority 2021, published 2025)
